This is an account of results in article PMC12443421.

Like-named read-outs stand apart in the source and are kept apart here.

Experiment [1] has as its target acidic patch mutant (APM) H3K4me3 147 bp nucleosome (human) (UniProt P62807).
Experiment [2] shares this target. Kind of experiment: native gel or EMSA; direct binding: 100 nM nucleosome and varying KDM5A; 50 mM HEPES pH 7.5, 50 mM KCl, 1 mM BME, 0.01% Tween-20, 0.01% BSA, 5% sucrose; 1 h on ice; gel at 4 C; SYBR gold; fit to specific binding with Hill slope. Background: A gel shift assay detects complexes by their altered migration in electrophoresis.
The target of experiment [3] is acidic patch mutant (APM) unmodified 147 bp nucleosome (H2A E61A, E64S, N68A, D72S, N89A, D90A, E91S) (human) (UniProt P62807). The description is as above.
Experiment [4] has as its target acidic patch mutant (APM) unmodified 147 bp nucleosome (H2A E61A, E64S, N68A, D72S, N89A, D90A, E91S), P62807;Q71DI3;P62805. Briefly: EMSA.
Experiment [5] has as its target KDM5A^CAT (lysine demethylase 5A, residues 1-801) (UniProt P29375). Briefly: EMSA.

Sequence of KDM5A^CAT (lysine demethylase 5A, residues 1-801) (from UniProt P29375 1-801) (domain or fragment) (P29375 1-801): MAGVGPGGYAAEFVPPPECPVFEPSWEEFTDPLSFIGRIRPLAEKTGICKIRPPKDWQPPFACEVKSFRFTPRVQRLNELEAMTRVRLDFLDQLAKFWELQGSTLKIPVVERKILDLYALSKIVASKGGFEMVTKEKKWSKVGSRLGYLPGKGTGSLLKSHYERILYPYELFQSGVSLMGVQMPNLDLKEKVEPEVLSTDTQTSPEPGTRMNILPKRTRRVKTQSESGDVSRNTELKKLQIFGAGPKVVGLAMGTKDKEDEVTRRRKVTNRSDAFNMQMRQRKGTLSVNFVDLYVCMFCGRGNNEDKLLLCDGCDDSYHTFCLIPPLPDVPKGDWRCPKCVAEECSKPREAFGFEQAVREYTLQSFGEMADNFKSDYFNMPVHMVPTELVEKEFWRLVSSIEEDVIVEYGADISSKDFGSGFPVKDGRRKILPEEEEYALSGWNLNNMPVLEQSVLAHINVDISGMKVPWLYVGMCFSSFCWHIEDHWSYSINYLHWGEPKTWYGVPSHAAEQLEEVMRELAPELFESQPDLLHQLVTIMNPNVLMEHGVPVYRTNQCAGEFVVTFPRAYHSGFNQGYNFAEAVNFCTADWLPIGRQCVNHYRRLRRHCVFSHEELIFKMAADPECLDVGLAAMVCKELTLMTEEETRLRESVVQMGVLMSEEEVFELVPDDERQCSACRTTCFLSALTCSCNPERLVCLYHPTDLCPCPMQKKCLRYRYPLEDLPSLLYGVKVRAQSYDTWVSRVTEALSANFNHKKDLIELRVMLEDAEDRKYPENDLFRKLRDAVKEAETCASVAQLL

Regarding “KDM5A^CAT (lysine demethylase 5A, residues 1-801) (from UniProt P29375 1-801) (domain or fragment)”, the fold decrease in demethylation of H3K4me3 on APM 147 bp nucleosomes relative to wild-type nucleosomes, quantitative western blot, single turnover (5 uM KDM5A enzyme, 50 nM substrate, 50 mM KCl) in experiment [1] was 9 fold. The substance also displayed a fold lower affinity relative to the wild-type H3K4me3 nucleosome in experiment [2] of 4 fold. For the same substance, the fold loss in affinity relative to the wild-type 147 bp nucleosome in experiment [3] came to 3 fold. Substance “KDM5A^CAT (lysine demethylase 5A, residues 1-801) (from UniProt P29375) R280A; R282A” had an equilibrium dissociation constant (Kd) in experiment [4] of 12 µM. The same measure, in the same setting: as for “KDM5A^CAT (lysine demethylase 5A, residues 1-801) (from UniProt P29375) R264A; R265A; R266A; R271A”, the figure is 10.1 µM; as for “KDM5A^CAT (lysine demethylase 5A, residues 1-801) (from UniProt P29375) R217A; R219A; R220A”, 15 µM. As for “wild-type unmodified 147 bp nucleosome (nucleosome core particle) (from UniProt P04908;P62807;Q71DI3;P62805) H2A:E61A; H2A:E64S; H2A:N68A; H2A:D72S; H2A:N89A; H2A:D90A; H2A:E91S”, in experiment [5], the Kd turned out to be 12 µM. On to “KDM5A^CAT (lysine demethylase 5A, residues 1-801) (from UniProt P29375) R210A; R217A; R219A; R220A; R232A; R264A; R265A; R266A; R271A; R280A; R282A”, for which the Kd in experiment [4] and in experiment [4] (0-32 µM KDM5A^MutR titration) was 14 µM throughout.

In general, Kd refers to the equilibrium constant for the complex coming apart. Low values mean a tighter complex, high ones a looser complex.
